Biological target: T1, Human Plasma Kallikrein (Homo sapiens, UniProt P03952)
T1 construct: purchased Molecular Innovations, Inc, USA
Experiment: Phage selection of leader-free SynLib1 library modified by Celf ProcM enzyme-leader fusions on biotinylated kallikrein (output titre)
Format: binding
Conditions: for difference in titre using 9.75 nM kallikrein and using 0 nM kallikrein: R3
Description: Human Plasma Kallikrein (Molecular Innovations, Inc, USA) at 1.15 mg/ml (13 μM) solution in 4 mM acetate, 150 mM NaCl, pH 5.3 was biotinylated using NHS-PEG4-Biotin from the EZ-link micro-PEO4-biotinylation kit (Pierce Biotechnology, USA). 680 μl of water was added to the contents of the pre-weighed vial of biotinylation reagent to make a 5 mM solution. 1 μl of this solution was added to 100 μl of the kallikrein solution. This was incubated at RT for 1 hour prior to the separation of the biotinylated protein from the unreacted biotin, using a 2 ml Spin Desalting column (Pierce Biotechnology, USA). The volume of the kallikrein was made up to 350 μl with PBS (Formedium Ltd, UK) and was loaded onto the spin column which had been equilibrated with PBS (as per the manufacturer's instructions). When this solution had been absorbed into the column matrix, a further 50 μl of PBS was added on top and the column was spun in a centrifuge at 1000 g for 2 min. 395 μl of solution was collected, making the concentration of the biotinylated kallikrein about 3.25 μM.
150 μl of stock leader-free SynLib1 library (4.5e11 phage per μl) was added to 1850 μl of TE buffer, 2 μl 1 M TCEP (Melford Biolaboratories Ltd, UK) and incubated at RT for 20 minutes to reduce the peptides on the phage. 400 μl of 2.5 M NaCl, 20% w/v PEG 8000 was added, incubated at RT for five minutes and the precipitated phages were collected by centrifugation at 15000 g for five minutes. The supernatant was discarded and the phages were resuspended in 150 μl of 25 mM Tris pH 7.5 (Sigma Aldrich, Austria), 1 μM TCEP.
Selections are performed by removing streptavidin-binding clones by pre-exposing the library to streptavidin resin, which is then discarded, mixing the library with decreasing concentrations of biotinylated target for an hour at each round of selection, capture of the biotinylated target and thereby any phage binding the target with magnetic streptavidin resin followed by extensive washing of the resin. Finally, the washed resin has the phage eluted from the target by exposure to a low pH solution, neutralisation of the solution and infection of E. coli by the eluted phage.
Round 1 (R1) of the selection was performed by adding 50 μl of LodeStars streptavidin resin (Agilent Technologies, USA), from which the liquid had been removed by magnetic capture, to the modified phage solution for 30 minutes to capture the peptide sequence that bind to streptavidin (deselection). The resin was captured magnetically and the phage-containing supernatant was collected and made up to 500 μl with 25 mM Tris pH 7.5, 0.05% Tween 20 (Melford Biolaboratories Ltd, UK). Biotinylated kallikrein was added to 100 nM, and mixed at RT for 1 hour prior to processing on a KingFisher mL (Thermo Fisher, Austria) magnetic particle washer. The processing involved the KingFisher transferring 25 μl of streptavidin resin to the phage solution and mixing for five minutes. The resin/phage were then collected and washed in 8×1 ml of PBS+0.05% Tween 20 (PBST). The resin was then mixed in 50 μl of 50 mM glycine pH 2.2 (Melford Biolaboratories Ltd, UK) for five minutes to elute the phage and the resin was removed. The phage-containing supernatant was neutralised with 10 μl of 1 M Tris pH 8.0 and added to 1 ml of TG1 cells at A600 of 0.6 followed by incubation at 37° C., 250 rpm for 1 hour. The phage titre was determination by adding 4 μl of culture to 96 μl of water, which was used to make five, 10-fold dilutions; 10 μl from each of these was spotted onto an LB+tetracycline agar plate. The remainder of the culture was made up to 11 ml with 2TY plus tetracycline and incubated at 37° C., 250 rpm overnight.
10 ml of overnight culture was reduced with 10 μl of 1 M TCEP for 20 min at RT followed by removal of the cells by centrifugation at 15000 g for five minutes. […]

T1 sequence (P03952 20-638): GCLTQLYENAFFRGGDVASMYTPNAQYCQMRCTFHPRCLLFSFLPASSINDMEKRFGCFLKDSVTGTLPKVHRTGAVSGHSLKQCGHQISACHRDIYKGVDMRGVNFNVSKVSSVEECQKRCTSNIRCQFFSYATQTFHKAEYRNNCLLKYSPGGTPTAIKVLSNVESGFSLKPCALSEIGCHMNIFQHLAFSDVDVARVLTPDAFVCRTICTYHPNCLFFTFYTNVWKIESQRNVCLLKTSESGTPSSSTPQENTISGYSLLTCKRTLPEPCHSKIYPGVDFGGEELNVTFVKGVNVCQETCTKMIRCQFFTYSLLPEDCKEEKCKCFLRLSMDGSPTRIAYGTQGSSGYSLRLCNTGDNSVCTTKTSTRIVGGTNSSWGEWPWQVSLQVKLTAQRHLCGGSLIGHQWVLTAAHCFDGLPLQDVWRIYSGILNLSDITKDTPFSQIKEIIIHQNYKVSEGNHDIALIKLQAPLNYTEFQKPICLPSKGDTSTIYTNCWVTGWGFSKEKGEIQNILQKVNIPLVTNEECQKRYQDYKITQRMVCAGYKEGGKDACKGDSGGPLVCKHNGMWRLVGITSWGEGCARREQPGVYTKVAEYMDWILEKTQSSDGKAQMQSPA

Molecule | output titre (number of phages eluted at the end of the round) (R1, 100 nM kallikrein) | output titre (number of phages eluted at the end of the round) (R2, 33 nM kallikrein) | difference in titre using 9.75 nM kallikrein and using 0 nM kallikrein [fold] | output titre (number of phages eluted at the end of the round) (R3, 0 nM kallikrein) | output titre (number of phages eluted at the end of the round) (R3, 9.75 nM kallikrein)
CelfProcM15: C-terminal leaderA4.3 ProcM enzyme-leader fusion, 15-pair linker, used to modify leader-free SynLib1 (protein, Enzyme-Leader-Fusion) MSEEQLKAFIAKVQADTSLQEQLKAEGADVVAIAKAAGFTITTEDLNSHRQNLTDDELEGVAGGSASGSGSGSAMESPSSWKTSWLAAIAPDEPHKFDRRLEWDELSEENFFAALNSEPASLEEDDPCFEEALQDALEALKAAWDLPLLPVDNNLNRPFVDVWWPIRCHSAESLRQSFVSDSAGLADEIFDQLADSLLDRLCALGDQVLWEAFNKERTPGTMLLAHLGAAGDGSGPPVREHYERFIQSHRRNGLAPLLKEFPVLGRLIGTVLSLWFQGSVEMLQRICADRTVLQQCFAIPCGHHLKTVKQGLSDPHRGGRAVAVLEFADPNSTANSSMHVVYKPKDMAVDAAYQATLADLNTHSDLSPLRTLAIHNGNGYGYMEHVVHHLCANDKELTNFYFNAGRLTALLHLLGCTDCHHENLIACGDQLLLIDTETLLEADLPDHISDASSTTAQPKPSSLQKQFQRSVLRSGLLPQWMFLGESKLAIDISALGMSPPNKPERIALGWLGFNSDGMMPGRVSQPVEIPTSLPVGIGEVNPFDRFLEDFCDGFSMQSEALIKLRNRWLDVNGVLAHFAGLPRRIVLRATRVYFTIQRQQLEPTALRSPLAQALKLEQLTRSFLLAESKPLHWPIFAAEVKQMQHLDIPFFTHLIDADALQLGGLEQELPGFIQTSGLAAAYERLRNLDTDEIAFQLRLIRGAVEARELHTTPESSPTLPPPATPEALMSSSAETSLEAAKRIAHRLLELAIRDSQGQVEWLGMDLGADGESFSFGPVGLSLYGGSIGIAHLLQRLQAQQVSLMDADAIQTAILQPLVGLVDQPSDDGRRRWWRDQPLGLSGCGGTLLALTLQGEQAMANSLLAAALPRFIEADQQLDLIGGCAGLIGSLVQLGTESALQLALRAGDHLIAQQNEEGAWSSSSSQPGLLGFSHGTAGYAAALAHLHAFSADERYRTAAAAALAYERARFNKDAGNWPDYRSIGRDSDSDEPSFMASWCHGAPGIALGRACLWGTALWDEECTKEIGIGLQTTAAVSSVSTDHLCCGSLGLMVLLEMLSAGPWPIDNQLRSHCQDVAFQYRLQALQRCSAEPIKLRCFGTKEGLLVLPGFFTGLSGMGLALLEDDPSRAVVSQLISAGLWPTESASGSGSGSGSGSGSGSGSGSTSGSGSGSAMSEEQLKAFIAKVQADTSLQEQLKAEGADVVAIAKAAGFTITTEDLNSHRQNLTDDELEGVAGG | 2.7e6 | 2.7e5 | 36 | 2.7e4 | 9.5e5
CelfProcM5: C-terminal leaderA4.3 ProcM enzyme-leader fusion, 5-pair linker, used to modify leader-free SynLib1 (protein, Enzyme-Leader-Fusion) MSEEQLKAFIAKVQADTSLQEQLKAEGADVVAIAKAAGFTITTEDLNSHRQNLTDDELEGVAGGSASGSGSGSAMESPSSWKTSWLAAIAPDEPHKFDRRLEWDELSEENFFAALNSEPASLEEDDPCFEEALQDALEALKAAWDLPLLPVDNNLNRPFVDVWWPIRCHSAESLRQSFVSDSAGLADEIFDQLADSLLDRLCALGDQVLWEAFNKERTPGTMLLAHLGAAGDGSGPPVREHYERFIQSHRRNGLAPLLKEFPVLGRLIGTVLSLWFQGSVEMLQRICADRTVLQQCFAIPCGHHLKTVKQGLSDPHRGGRAVAVLEFADPNSTANSSMHVVYKPKDMAVDAAYQATLADLNTHSDLSPLRTLAIHNGNGYGYMEHVVHHLCANDKELTNFYFNAGRLTALLHLLGCTDCHHENLIACGDQLLLIDTETLLEADLPDHISDASSTTAQPKPSSLQKQFQRSVLRSGLLPQWMFLGESKLAIDISALGMSPPNKPERIALGWLGFNSDGMMPGRVSQPVEIPTSLPVGIGEVNPFDRFLEDFCDGFSMQSEALIKLRNRWLDVNGVLAHFAGLPRRIVLRATRVYFTIQRQQLEPTALRSPLAQALKLEQLTRSFLLAESKPLHWPIFAAEVKQMQHLDIPFFTHLIDADALQLGGLEQELPGFIQTSGLAAAYERLRNLDTDEIAFQLRLIRGAVEARELHTTPESSPTLPPPATPEALMSSSAETSLEAAKRIAHRLLELAIRDSQGQVEWLGMDLGADGESFSFGPVGLSLYGGSIGIAHLLQRLQAQQVSLMDADAIQTAILQPLVGLVDQPSDDGRRRWWRDQPLGLSGCGGTLLALTLQGEQAMANSLLAAALPRFIEADQQLDLIGGCAGLIGSLVQLGTESALQLALRAGDHLIAQQNEEGAWSSSSSQPGLLGFSHGTAGYAAALAHLHAFSADERYRTAAAAALAYERARFNKDAGNWPDYRSIGRDSDSDEPSFMASWCHGAPGIALGRACLWGTALWDEECTKEIGIGLQTTAAVSSVSTDHLCCGSLGLMVLLEMLSAGPWPIDNQLRSHCQDVAFQYRLQALQRCSAEPIKLRCFGTKEGLLVLPGFFTGLSGMGLALLEDDPSRAVVSQLISAGLWPTESASGSGSGSAMSEEQLKAFIAKVQADTSLQEQLKAEGADVVAIAKAAGFTITTEDLNSHRQNLTDDELEGVAGG | 6.4e5 | 5.3e5 | 10 | 5.0e4 | 5.0e5
CelfProcM10: C-terminal leaderA4.3 ProcM enzyme-leader fusion, 10-pair linker, used to modify leader-free SynLib1 (protein, Enzyme-Leader-Fusion) MSEEQLKAFIAKVQADTSLQEQLKAEGADVVAIAKAAGFTITTEDLNSHRQNLTDDELEGVAGGSASGSGSGSAMESPSSWKTSWLAAIAPDEPHKFDRRLEWDELSEENFFAALNSEPASLEEDDPCFEEALQDALEALKAAWDLPLLPVDNNLNRPFVDVWWPIRCHSAESLRQSFVSDSAGLADEIFDQLADSLLDRLCALGDQVLWEAFNKERTPGTMLLAHLGAAGDGSGPPVREHYERFIQSHRRNGLAPLLKEFPVLGRLIGTVLSLWFQGSVEMLQRICADRTVLQQCFAIPCGHHLKTVKQGLSDPHRGGRAVAVLEFADPNSTANSSMHVVYKPKDMAVDAAYQATLADLNTHSDLSPLRTLAIHNGNGYGYMEHVVHHLCANDKELTNFYFNAGRLTALLHLLGCTDCHHENLIACGDQLLLIDTETLLEADLPDHISDASSTTAQPKPSSLQKQFQRSVLRSGLLPQWMFLGESKLAIDISALGMSPPNKPERIALGWLGFNSDGMMPGRVSQPVEIPTSLPVGIGEVNPFDRFLEDFCDGFSMQSEALIKLRNRWLDVNGVLAHFAGLPRRIVLRATRVYFTIQRQQLEPTALRSPLAQALKLEQLTRSFLLAESKPLHWPIFAAEVKQMQHLDIPFFTHLIDADALQLGGLEQELPGFIQTSGLAAAYERLRNLDTDEIAFQLRLIRGAVEARELHTTPESSPTLPPPATPEALMSSSAETSLEAAKRIAHRLLELAIRDSQGQVEWLGMDLGADGESFSFGPVGLSLYGGSIGIAHLLQRLQAQQVSLMDADAIQTAILQPLVGLVDQPSDDGRRRWWRDQPLGLSGCGGTLLALTLQGEQAMANSLLAAALPRFIEADQQLDLIGGCAGLIGSLVQLGTESALQLALRAGDHLIAQQNEEGAWSSSSSQPGLLGFSHGTAGYAAALAHLHAFSADERYRTAAAAALAYERARFNKDAGNWPDYRSIGRDSDSDEPSFMASWCHGAPGIALGRACLWGTALWDEECTKEIGIGLQTTAAVSSVSTDHLCCGSLGLMVLLEMLSAGPWPIDNQLRSHCQDVAFQYRLQALQRCSAEPIKLRCFGTKEGLLVLPGFFTGLSGMGLALLEDDPSRAVVSQLISAGLWPTESASGSGSGSGSTSGSGSGSAMSEEQLKAFIAKVQADTSLQEQLKAEGADVVAIAKAAGFTITTEDLNSHRQNLTDDELEGVAGG | 4.2e6 | 2.9e5 | 6.5 | 5.3e4 | 3.4e5

— patent US20170240883A1, “CYCLIC PEPTIDES EXPRESSED BY A GENETIC PACKAGE” (Miti Biosystems GmbH, priority 2014, published 2017)
